Test results published in PMC8446801, “Coiled-coil binding of the leucine zipper domains of APOL1 is necessary for the open cation channel conformation” (The Journal of Biological Chemistry, 2021).

Assays:
APOL1 G0 (human) = APOL1 G0 (human) (UniProt O14791)
[1] = biological target: the molecule itself; experiment: cross-linking; untreated control protein (lane c): thawed on ice from -80 °C and immediately diluted into SDS sample buffer; nonreducing SDS-PAGE, silver stain
APOL1 LZA 1 (human) = APOL1 LZA 1 (human) (UniProt O14791)
[2] = biological target: the molecule itself; experiment: cross-linking; disulfide trapping between substituted cysteines, no membranes; protein (~0.159 uM) in 0.2 ml buffer (5 mM succinate, 5 mM Hepes, 0.5 mM KCl, 5 mM CaCl2), room temperature, 1 h at pH 5.6 followed by 1 h at pH 7.2; nonreducing SDS-PAGE, silver stain

B1: APOL1 G0 (natural protein)
chain: EEAGARVQQNVPSGTDTGDPQSKPLGDWAAGTMDPESSIFIEDAIKYFKEKVSTQNLLLLLTDNEAWNGFVAAAELPRNEADELRKALDNLARQMIMKDKNWHDKGQQYRNWFLKEFPRLKSKLEDNIRRLRALADGVQKVHKGTTIANVVSGSLSISSGILTLVGMGLAPFTEGGSLVLLEPGMELGITAALTGITSSTIDYGKKWWTQAQAHDLVIKSLDKLKEVKEFLGENISNFLSLAGNTYQLTRGIGKDIRALRRARANLQSVPHASASRPRVTEPISAESGEQVERVNEPSILEMSRGVKLTDVAPVSFFLVLDVVYLVYESKHLHEGAKSETAEELKKVAQELEEKLNILNNNYKILQADQEL
APOL1 G0 (human)
  trypanosome lysis (T. b. brucei, 24 h), IC50: 0.125 µg/mL

B2: APOL1 LZA A375C (natural protein, human, UniProt O14791 28-398, looked up)
chain: EEAGARVQQNVPSGTDTGDPQSKPLGDWAAGTMDPESSIFIEDAIKYFKEKVSTQNLLLLLTDNEAWNGFVAAAELPRNEADELRKALDNLARQMIMKDKNWHDKGQQYRNWFLKEFPRLKSKLEDNIRRLRALADGVQKVHKGTTIANVVSGSLSISSGILTLVGMGLAPFTEGGSLVLLEPGMELGITAALTGITSSTIDYGKKWWTQAQAHDLVIKSLDKLKEVKEFLGENISNFLSLAGNTYQLTRGIGKDIRALRRARANLQSVPHASASRPRVTEPISAESGEQVERVNEPSILEMSRGVKLTDVAPVSFFLVLDVVYLVYESKHLHEGAKSETAEEAKKVCQEAEEKLNIANNNYKIAQADQEL
notes: Apolipoprotein L-I (APOL1) G0, human, aa 28-398, isoform K150, I228, K255 (GenBank AAI12944.2), every d position leucine of the ZIP domain to alanine plus A375C; Disulfide dimers were already present in the starting material (formed during purification); source: E. coli BL21-DE3-RIPL, purified (nickel-chelate chromatography, SEC); not shown: His6, N-terminal, kept
[1]
  stoichiometry N: 2

B3: APOL1 LZA 1 (natural protein)
chain: EEAGARVQQNVPSGTDTGDPQSKPLGDWAAGTMDPESSIFIEDAIKYFKEKVSTQNLLLLLTDNEAWNGFVAAAELPRNEADELRKALDNLARQMIMKDKNWHDKGQQYRNWFLKEFPRLKSKLEDNIRRLRALADGVQKVHKGTTIANVVSGSLSISSGILTLVGMGLAPFTEGGSLVLLEPGMELGITAALTGITSSTIDYGKKWWTQAQAHDLVIKSLDKLKEVKEFLGENISNFLSLAGNTYQLTRGIGKDIRALRRARANLQSVPHASASRPRVTEPISAESGEQVERVNEPSILEMSRGVKLTDVAPVSFFLVLDVVYLVYESKHLHEGAKSETAEEAKKVAQELEEKLNILNNNYKILQADQEL
APOL1 LZA 1 (human)
  trypanosome lysis (T. b. brucei, 24 h), IC50: 0.6 µg/mL

B4: APOL1 A363C (natural protein, human, UniProt O14791 28-398, looked up)
chain: EEAGARVQQNVPSGTDTGDPQSKPLGDWAAGTMDPESSIFIEDAIKYFKEKVSTQNLLLLLTDNEAWNGFVAAAELPRNEADELRKALDNLARQMIMKDKNWHDKGQQYRNWFLKEFPRLKSKLEDNIRRLRALADGVQKVHKGTTIANVVSGSLSISSGILTLVGMGLAPFTEGGSLVLLEPGMELGITAALTGITSSTIDYGKKWWTQAQAHDLVIKSLDKLKEVKEFLGENISNFLSLAGNTYQLTRGIGKDIRALRRARANLQSVPHASASRPRVTEPISAESGEQVERVNEPSILEMSRGVKLTDVAPVSFFLVLDVVYLVYESKHLHEGCKSETAEELKKVAQELEEKLNILNNNYKILQADQEL
notes: Apolipoprotein L-I (APOL1) G0, human, aa 28-398, isoform K150, I228, K255 (GenBank AAI12944.2); Cysteine in the predicted turn region between the pore-lining region and the ZIP domain, outside the ZIP domain; source: E. coli BL21-DE3-RIPL, purified (nickel-chelate chromatography, SEC); not shown: His6, N-terminal, kept
[2]
  binding result: binds

B5: APOL1 A375C (natural protein, human, UniProt O14791 28-398, looked up)
chain: EEAGARVQQNVPSGTDTGDPQSKPLGDWAAGTMDPESSIFIEDAIKYFKEKVSTQNLLLLLTDNEAWNGFVAAAELPRNEADELRKALDNLARQMIMKDKNWHDKGQQYRNWFLKEFPRLKSKLEDNIRRLRALADGVQKVHKGTTIANVVSGSLSISSGILTLVGMGLAPFTEGGSLVLLEPGMELGITAALTGITSSTIDYGKKWWTQAQAHDLVIKSLDKLKEVKEFLGENISNFLSLAGNTYQLTRGIGKDIRALRRARANLQSVPHASASRPRVTEPISAESGEQVERVNEPSILEMSRGVKLTDVAPVSFFLVLDVVYLVYESKHLHEGAKSETAEELKKVCQELEEKLNILNNNYKILQADQEL
notes: Apolipoprotein L-I (APOL1) G0, human, aa 28-398 (without the signal peptide), most common isoform K150, I228, K255 (GenBank AAI12944.2); Cysteine at the a position of the C-terminal leucine zipper (ZIP) domain; APOL1 has no endogenous cysteines; Stored with 1 mM DTT in the SEC buffer; also called apolipoprotein L-I A375C; source: E. coli BL21-DE3-RIPL, purified (nickel-chelate chromatography, …)
[2]
  stoichiometry N: 2
